Assay results taken from article doi:10.1101/619858.

Molecular target: α-Synuclein (α-Syn), wild type (UniProt P37840)

A percent of the protein as fibrils (day 5) of 2% and a percent of the protein as oligomers (day 5) of 8% were found for “α-Synuclein (α-Syn), wild type (from UniProt P37840 1-140) (natural protein)” in this work.
